Measurements reported in publication PMC9256742, “Structure and function of cancer-related developmentally regulated GTP-binding protein 1 (DRG1) is conserved between sponges and humans” (Scientific Reports, 2022).

T1: recombinant human DRG family regulatory protein 1, His-tagged (human, UniProt Q8WU90 1-426)
T1 construct: human DFRP1 (LEREPO4/ZC3H15), cDNA from a commercially available product; also called HsaDFRP1; human DFRP1
T1 sequence (looked up): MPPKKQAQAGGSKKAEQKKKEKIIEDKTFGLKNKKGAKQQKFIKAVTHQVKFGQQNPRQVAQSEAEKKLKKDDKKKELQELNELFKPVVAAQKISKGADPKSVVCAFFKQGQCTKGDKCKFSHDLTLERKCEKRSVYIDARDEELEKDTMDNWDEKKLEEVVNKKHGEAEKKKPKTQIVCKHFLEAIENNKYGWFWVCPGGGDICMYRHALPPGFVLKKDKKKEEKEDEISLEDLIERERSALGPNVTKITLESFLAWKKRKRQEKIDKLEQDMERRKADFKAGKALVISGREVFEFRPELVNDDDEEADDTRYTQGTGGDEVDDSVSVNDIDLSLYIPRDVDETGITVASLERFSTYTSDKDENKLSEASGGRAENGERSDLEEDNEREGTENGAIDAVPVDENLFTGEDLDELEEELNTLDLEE

B1: recombinant human developmentally regulated GTP-binding protein 1, His-tagged (natural protein, UniProt Q9Y295 1-367, looked up)
chain: MSSTLAKIAEIEAEMARTQKNKATAHHLGLLKARLAKLRRELITPKGGGGGGPGEGFDVAKTGDARIGFVGFPSVGKSTLLSNLAGVYSEVAAYEFTTLTTVPGVIRYKGAKIQLLDLPGIIEGAKDGKGRGRQVIAVARTCNLILIVLDVLKPLGHKKIIENELEGFGIRLNSKPPNIGFKKKDKGGINLTATCPQSELDAETVKSILAEYKIHNADVTLRSDATADDLIDVVEGNRVYIPCIYVLNKIDQISIEELDIIYKVPHCVPISAHHRWNFDDLLEKIWDYLKLVRIYTKPKGQLPDYTSPVVLPYSRTTVEDFCMKIHKNLIKEFKYALVWGLSVKHNPQKVGKDHTLEDEDVIQIVKK
notes: human DRG1, cDNA from a commercially available product; also called HsaDRG1; HsaDRG1-His

Columns and labels:
[1] = target: recombinant sponge (Eunapius subterraneus) DRG family regulatory protein 1, His-tagged (Eunapius subterraneus); experiment: SEC; Superdex 200 Increase 10/300 GL, 10 mM phosphate buffer, 140 mM NaCl, pH 7.4, 4 °C; column calibrated with standards; fractions analysed by SDS-PAGE and anti-His Western blot
[2] = target: recombinant sponge (Eunapius subterraneus) developmentally regulated GTP-binding protein 1, His-tagged (Eunapius subterraneus)
recombinant sponge (Eunapius subterraneus) developmentally regulated GTP-binding protein 1, His-tagged (Eunapius subterraneus), sequence (main, as listed by the source): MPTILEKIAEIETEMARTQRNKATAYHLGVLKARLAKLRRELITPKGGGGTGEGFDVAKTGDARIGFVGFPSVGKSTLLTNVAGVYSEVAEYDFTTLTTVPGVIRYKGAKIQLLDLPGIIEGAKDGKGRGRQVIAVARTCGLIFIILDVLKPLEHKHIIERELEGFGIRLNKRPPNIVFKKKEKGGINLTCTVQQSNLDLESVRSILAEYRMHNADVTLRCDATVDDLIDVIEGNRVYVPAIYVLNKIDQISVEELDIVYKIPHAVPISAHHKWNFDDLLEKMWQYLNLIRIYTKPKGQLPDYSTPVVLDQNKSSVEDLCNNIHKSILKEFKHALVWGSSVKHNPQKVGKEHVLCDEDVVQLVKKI

[3] = target: T1, recombinant human DRG family regulatory …; experiment: cross-linking; glutaraldehyde cross-linking of a mixture of DRG1 and DFRP1 (2 ug of each), or of DFRP1 alone, in PBS, 0.125-0.5% glutaraldehyde, 30 min, room temperature (25 °C); SDS-PAGE, Coomassie; conditions: both partners purified

Row | stoichiometry N [1] | GTPase activity of EsuDRG1 (GTPase-Glo luminescence assay) with equimolar EsuDFRP1, 1.2 uM each, against EsuDRG1 alone [2] [fold] | binding result [3] | Molecule
1 | 4 | 2.5 | – | recombinant sponge (Eunapius subterraneus) DRG family regulatory protein 1, His-tagged (natural protein)
2 | – | – | binds | B1
